One substance from PMC3068846 can be followed below.

The target of the assay is DivL DHp and CA domains fused to YFP (Caulobacter crescentus). The assay is described as follows: FRET or BRET. A general note: Bioluminescence resonance energy transfer reports proximity on the nanometre scale.
Sequence of DivL DHp and CA domains fused to YFP (Caulobacter crescentus) (Q9RQQ9 547-758): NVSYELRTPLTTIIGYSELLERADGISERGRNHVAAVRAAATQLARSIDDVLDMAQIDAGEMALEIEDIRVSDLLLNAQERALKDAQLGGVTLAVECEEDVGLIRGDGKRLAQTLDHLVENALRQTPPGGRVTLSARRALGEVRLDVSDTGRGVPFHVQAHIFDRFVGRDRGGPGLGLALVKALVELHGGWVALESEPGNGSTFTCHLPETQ

Regarding “DivK~P-CFP (DivK-CFP phosphorylated by DivJ and ATP) (natural protein)”, the FRET efficiency relative to the longer version of DivL amounted to 85%.
